Measurements: patent US20230265151A1, “GIP/GLP1 CO-AGONIST COMPOUNDS” (priority 2020, published 2023)
*1 amine or outer side, *2 acyl side, *3 side chain or, on linkers, in order; H or OH if unused. Where no end group is shown, it is not given here. Side-chain parts run from the residue outwards. [ ]: non-standard residue; d: D form. The star is where a group is joined. αMePhe(2-F) = C[C@](N)(Cc1ccccc1F)C(=O)O; γGlu = O=C(O)[C@H](CCC(=O)[*:2])N[*:1]; C14 diacid = O=C(O)CCCCCCCCCCCCC(=O)*; αMeY = C[C@](N)(Cc1ccc(O)cc1)C(=O)O; αMeL = CC(C)C[C@](C)(N)C(=O)O; Nle = CCCC[C@H](N)C(=O)O; Orn = NCCC[C@H](N)C(=O)O; AEEA = NCCOCCOCC(=O)O; Aib = CC(C)(N)C(=O)O

Tests used:
human GLP-1 receptor = target: T1, human GLP-1 receptor (human, UniProt P43220 24-463); assay: SPA competition vs [125I]-GLP-1, hGLP-1R membranes
T1 construct: whole, on cells; also called hGLP-1R; human glucagon-like peptide-1 receptor
Method in brief: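 Kᵢ values are geometric means (SEM) over replicates run on separate days, derived from IC₅₀ of four-parameter curve fits. Buffer: HEPES 25 mM pH 7.4 with CaCl₂ 2.5 mM, MgCl₂ 1 mM, bacitracin 0.1%, TWEEN-20 0.003%, EDTA-free protease inhibitors.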

human GIP receptor = target: T2, human GIP receptor (human, UniProt P48546 22-466); assay: SPA competition vs [125I]-GIP, hGIPR membranes
T2 construct: whole, on cells; also called hGIPR; human glucose-dependent insulinotropic polypeptide receptor
T2 sequence (looked up): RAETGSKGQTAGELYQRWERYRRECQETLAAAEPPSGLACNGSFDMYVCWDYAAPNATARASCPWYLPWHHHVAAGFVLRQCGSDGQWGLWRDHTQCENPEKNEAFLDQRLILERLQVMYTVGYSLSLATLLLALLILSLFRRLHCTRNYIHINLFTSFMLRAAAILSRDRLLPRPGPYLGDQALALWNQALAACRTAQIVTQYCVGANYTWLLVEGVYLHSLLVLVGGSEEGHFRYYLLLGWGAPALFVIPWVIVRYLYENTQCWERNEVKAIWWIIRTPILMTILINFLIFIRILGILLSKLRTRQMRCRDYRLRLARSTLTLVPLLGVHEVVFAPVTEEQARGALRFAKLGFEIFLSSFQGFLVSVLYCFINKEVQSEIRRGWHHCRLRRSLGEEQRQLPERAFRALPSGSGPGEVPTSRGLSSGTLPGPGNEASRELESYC

human glucagon receptor = target: T3, human glucagon receptor (human, UniProt P47871 26-477); assay: SPA competition vs [125I]-Gcg, hGcgR membranes
T3 construct: whole, on cells; also called hGCGR; hGcgR
T3 sequence (P47871 26-477): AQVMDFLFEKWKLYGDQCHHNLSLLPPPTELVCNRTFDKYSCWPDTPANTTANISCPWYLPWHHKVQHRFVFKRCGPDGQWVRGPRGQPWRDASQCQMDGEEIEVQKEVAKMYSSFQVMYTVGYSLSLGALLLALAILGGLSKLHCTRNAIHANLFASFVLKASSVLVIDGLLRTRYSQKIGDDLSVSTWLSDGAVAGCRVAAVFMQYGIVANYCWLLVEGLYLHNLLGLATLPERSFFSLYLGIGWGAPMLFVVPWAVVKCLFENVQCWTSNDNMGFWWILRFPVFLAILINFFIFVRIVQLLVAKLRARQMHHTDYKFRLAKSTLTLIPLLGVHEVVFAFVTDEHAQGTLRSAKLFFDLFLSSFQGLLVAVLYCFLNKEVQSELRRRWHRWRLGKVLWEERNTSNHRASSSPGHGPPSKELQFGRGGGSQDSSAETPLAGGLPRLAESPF

| Binder | Ki (human GLP-1 receptor) [nM] | Ki (human GIP receptor) [nM] | Ki (human glucagon receptor) [nM] |
| --- | --- | --- | --- |
| YXEGTXTSDXXIXLDXQAQXXFIKXLIKGGPSSGAPPPS (Aib2, αMeF(2F)6, 4Pal10, Aib11, αMeL13, Orn16, Aib20, Orn21, K24(Z1), αMeY25, K28(Z1), C-term NH2; Z1=(γ-Glu)-AEEA2-(γ-Glu)-CO-(CH2)12-CO2H) | 0.254 | 0.0277 | 273 |
| YXEGTXTSDXSIXLDXKAQXEFIKXLIEGGPSSGAPPPS (Aib2, αMeF(2F)6, 4Pal10, αMeL13, Orn16, K17(Z1), Aib20, K24(Z1), αMeY25, C-term NH2; Z1=AEEA2-(γ-Glu)-CO-(CH2)14-CH3) | 0.301 | 0.0217 | 0.596 |
| YXEGTXTSDXXIXLDXQAQXXFIKXLIKGGPSSGAPPPS (Aib2, αMeF(2F)6, 4Pal10, Aib11, αMeL13, Orn16, Aib20, Orn21, K24(Z1), αMeY25, K28(Z1), C-term NH2; Z1=AEEA3-(γ-Glu)-CO-(CH2)12-CO2H) | 0.226 | 0.0351 | 605 |
| YXEGTXTSDXXIXLDXQAQXXFIKXLIKGGPSSGAPPPS (Aib2, αMeF(2F)6, 4Pal10, Aib11, αMeL13, Orn16, Aib20, Orn21, K24(Z1), αMeY25, K28(Z1), C-term NH2; Z1=PEG5-(γ-Glu)-CO-(CH2)12-CO2H) | 0.381 | 0.0486 | 208 |
| YXEGTXTSDXXIXLDXQAQXXFIKXLIKGGPSSGAPPPS (Aib2, αMeF(2F)6, 4Pal10, Aib11, αMeL13, Orn16, Aib20, Orn21, K24(Z1), αMeY25, K28(Z1), C-term NH2; Z1=AEEA3-(γ-Glu)-(10-(4-carboxyphenoxy)decanoyl)) | 0.143 | 0.0279 | 268 |
| YXEGTXTSDYXIXLDXQAQXXFIKXLIKGGPSSGAPPPS (Aib2, αMeF(2F)6, Aib11, αMeL13, Orn16, Aib20, Orn21, K24(Z1), αMeY25, K28(Z1), C-term NH2; Z1=AEEA2-(γ-Glu)2-CO-(CH2)12-CO2H) | 0.307 | 0.0368 | 88.5 |
| YXEGTXTSDXXIXLDXQAQXXFIKXLIKGGPSSGAPPPS (Aib2, αMeF(2F)6, 4Pal10, Aib11, αMeL13, Orn16, Aib20, Orn21, K24(Z1), αMeY25, K28(Z1), C-term NH2; Z1=PEG5-(γ-Glu)-(10-(4-carboxyphenoxy)decanoyl)) | 0.0847 | 0.0387 | 144 |
| YXEGTXTSDYXIXLDXQAQXXFIKXLIKGGPSSGAPPPS (Aib2, αMeF(2F)6, Aib11, αMeL13, Orn16, Aib20, Orn21, K24(Z1), αMeY25, K28(Z1), C-term NH2; Z1=AEEA2-(γ-Glu)-C10_4CP (so in the source)) | 0.233 | 0.0264 | 28.6 |
| YXEGTXTSDXXIXLDXQAQXXFIKXLIKGGPSSGAPPPS (Aib2, αMeF(2F)6, 4Pal10, Aib11, αMeL13, Orn16, Aib20, Orn21, K24(Z1), αMeY25, K28(Z1), C-term NH2; Z1=AEEA2-(γ-Glu)2-(10-(4-carboxyphenoxy)decanoyl)) | 0.189 | 0.0294 | 139 |
| YXEGTXTSDXXIXLDXQAQXXFIKXLIKGGPSSGAPPPS (Aib2, αMeF(2F)6, 4Pal10, Aib11, αMeL13, Orn16, Aib20, Orn21, K24(Z1), αMeY25, K28(Z1), C-term NH2; Z1=AEEA-Trx-(γ-Glu)-CO-(CH2)12-CO2H) | 0.254 | 0.0376 | 258 |
| YXEGTXTSDXXIXLDXQAQXXFIKXLIKGGPSSGAPPPS (Aib2, αMeF(2F)6, 4Pal10, Aib11, αMeL13, Orn16, Aib20, Orn21, K24(Z1), αMeY25, K28(Z1), C-term NH2; Z1=(γ-Glu)-AEEA2-(γ-Glu)-(10-(4-carboxyphenoxy)decanoyl)) | 0.263 | 0.0236 | 151 |
| YXEGTXTSDXXIXLDXQAQXXFIKXLIKGGPSSGAPPPS (Aib2, αMeF(2F)6, 4Pal10, Aib11, αMeL13, Orn16, Aib20, Orn21, K24(Z1), αMeY25, K28(Z1), C-term NH2; Z1=AEEA-(γ-Glu)3-CO-(CH2)12-CO2H) | 0.299 | 0.046 | 115 |
| YXEGTXTSDXXIXLDXQAQXXFIKXLIKGGPSSGAPPPS (Aib2, αMeF(2F)6, 4Pal10, Aib11, αMeL13, Orn16, Aib20, Orn21, K24(Z1), αMeY25, K28(Z1), C-term NH2; Z1=AEEA2-Trx-(γ-Glu)-CO-(CH2)12-CO2H) | 0.121 | 0.0346 | 945 |
| YXEGTXTSDXXIXLDXQAQXXFIKXLIKGGPSSGAPPPS (Aib2, αMeF(2F)6, 4Pal10, Aib11, αMeL13, Orn16, Aib20, Orn21, K24(Z1), αMeY25, K28(Z1), C-term NH2; Z1=AEEA2-Trx-(γ-Glu)-(10-(4-carboxyphenoxy)decanoyl)) | 0.197 | 0.0493 | 452 |
| YXEGTXTSDXSIXLDXQAQXXFIKXLIKGGPSSGAPPPS (Aib2, αMeF(2F)6, hY10 (so in the source), αMeL13, Orn16, Aib20, Orn21, K24(Z1), αMeY25, K28(Z1), C-term NH2; Z1=AEEA2-(γ-Glu)-CO-(CH2)12-CO2H) | 0.182 | 0.0301 | 94.4 |
| YXEGTXTSDXSIXLDXKAQXEFIXXLIEGGPSSGAPPPSK (Aib2, αMeF(2F)6, 4Pal10, αMeL13, Orn16, K17(Z1), Aib20, D-Glu24, αMeY25, K40(Z1), C-term NH2; Z1=AEEA2-(γ-Glu)-CO-(CH2)14-CH3) | 0.483 | 0.0293 | 0.283 |
| Y[Aib]EGT[αMePhe(2-F)]TSD[Nle]SI[αMeL]LD[Orn]QAQ[Aib][Orn]FIK([AEEA-AEEA-γGlu-C14 diacid])[αMeY]LIK([AEEA-AEEA-γGlu-C14 diacid])GGPSSGAPPPS-NH2 | 0.27 | 0.0288 | 37.8 |
